Reference: the supplement of paper PMC9170038

System: MS2 coat protein
Assay: apparent KD of MS2 coat protein; designed switch direction (-1 OFF switch, 1 ON switch): -1; higher = weaker reporter binding
In short: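 The apparent KD reported per design is the median over clusters of curve fits to normalised cluster fluorescence. The RNA switches were transcribed on Illumina chips by stalled E. coli RNA polymerase. SNAP-549-labelled MS2 coat protein was titrated from 0.7 or 1.5 nM, doubling up to 3 µM, in Tris-HCl pH 7.5 buffer containing KCl, MgCl2, BSA, DTT, tRNA and Tween-20, with no input, 200 uM small-molecule ligand, or an oligonucleotide input.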

[1] = input ligand: microRNA oligo, concentration not stated
[2] = Eterna round: R95, input ligand: microRNA oligo, concentration not stated
[3] = Eterna round: R95, input ligand: FMN 200 uM
[4] = Eterna round: R95, input ligand: none

UUUUGGCAGGCAAUUAUUAACAUGAGGAUCACCCAUGUGCAUCCAAAAUUACUUUUAGAUCAAGCUCGUCUUAUAUA [JR_STOV1_Sub087] (Eterna round: R97, puzzle: Sensor, turn-off variant 1)
apparent KD of MS2 coat protein (input ligand: FMN 200 uM): 29.9 nM
apparent KD of MS2 coat protein (input ligand: none): 35.1 nM

AAUCGGUGAGGAUAUCUAUUGCGGGAGGAAAUUCGCGAAACGGAGAAGGCACAUGAGGAUCACCCAUGUGAAUC [EX4 C.18] (Eterna round: R97, puzzle: Exclusion 4)
apparent KD of MS2 coat protein (input ligand: FMN 200 uM): 25.7 nM
apparent KD of MS2 coat protein (input ligand: none): 18.8 nM

AAUUAGUAUGUGAGGAUAUUAAUGGAAUGACUUAUUAAGAAGGCACAUGAGGAUCACCCAUGUGGGAAGUCACG [JR_BMEx4_Sub013] (Eterna round: R97, puzzle: Brourd's mod of Exclusion 4)
apparent KD of MS2 coat protein (input ligand: FMN 200 uM): 49.2 nM
apparent KD of MS2 coat protein (input ligand: none): 15.6 nM

UAUAGGCUAGGAUAUACAACACUUGGUUCGAAUGUUUGGAGACAUGAGGAUCACCCAUGUAGAAGGAGCAUUUC [Leleis] (Eterna round: R96, puzzle: Exclusion 2)
apparent KD of MS2 coat protein (input ligand: FMN 200 uM): 264 nM
apparent KD of MS2 coat protein [1]: 54 nM
apparent KD of MS2 coat protein (input ligand: none): 66.5 nM

AUGUGCACGCUGCGAUCCUACAUGAGGAUCACCCAUGUGGUCUGGUGGCGUGGGUCACCGGACUUGGCUCGUCUUGU [salish99_S_TOV1_R5_081] (Eterna round: R97, puzzle: Sensor, turn-off variant 1)
apparent KD of MS2 coat protein (input ligand: FMN 200 uM): 62.1 nM
apparent KD of MS2 coat protein (input ligand: none): 77.8 nM

AAUAACAGAGGAUAUACUGUUUUAUGUGUUUGUUAUUUUGAACAUGAGGAUCACCCAUGUAGAAGGCUGAUUGA [JMF 76] (puzzle: Exclusion 2)
apparent KD of MS2 coat protein [2]: 46 nM

GUGAUGUAGCACAAUAAGUUUUUUGCCGUCUUAGGUCCAACAUGAGGAUCACCCAUGUACGUCUACAUGCACUUUAA [Veveuslabe] (puzzle: Sensor v3, turn-off variant 2)
apparent KD of MS2 coat protein [3]: 66.4 nM
apparent KD of MS2 coat protein [2]: 197 nM
apparent KD of MS2 coat protein [4]: 81.2 nM

AUGAGGAUAAGAAAGUGAAGAUAGAGCGUACCUUAUGGAACAUGAGGAUCACCCAUGUAGCUUUUUGCUCGUCUUAU [JR_SV3TOV2_Sub031] (puzzle: Sensor v3, turn-off variant 2)
apparent KD of MS2 coat protein [3]: 19.9 nM
apparent KD of MS2 coat protein [2]: 49.5 nM
apparent KD of MS2 coat protein [4]: 14.7 nM

UUGUUUUCCGCAGGAUAUGCUCCUCCAUUACUAGCAGAAGGGCGUUGAACAUGAGGAUCACCCAUGUAUGUAAUUGCUUAUUGC [JR_ExcNG1_Sub073] (Eterna round: R96, puzzle: Exclusion NG 1)
apparent KD of MS2 coat protein (input ligand: FMN 200 uM): 19.7 nM
apparent KD of MS2 coat protein [1]: 14.8 nM
apparent KD of MS2 coat protein (input ligand: none): 18.9 nM

ACAUGAGGAUCACCCAUGUGCACGUAAUGGCUCAUGUAGAGUGAGGAUAUGCGUGACGAACGAGCGCAGAAGGCACAAGACUGG [Deportation 16 - Jieux - Exclusion NG 3] (Eterna round: R96, puzzle: Exclusion NG 3)
apparent KD of MS2 coat protein (input ligand: FMN 200 uM): 131 nM
apparent KD of MS2 coat protein [1]: 57.8 nM
apparent KD of MS2 coat protein (input ligand: none): 77.5 nM

UACGAGUCAGGAUAUUGGGCAAUAGCAUUACGGAACGAUCACAAGAAGGGACAUGAGGAUCACCCAUGUUAUAU [Candy Rainbow 3] (puzzle: Exclusion 4)
apparent KD of MS2 coat protein [2]: 22.3 nM

GAAUAGGCAGGAUAUACAUGAGGAUCACCCAUGUGCUUGCGAUAGGCACGUGAACAACGUAGAAGGGCCUUAAC [ChP 13.04.2015 #12] (Eterna round: R96, puzzle: Exclusion 3)
apparent KD of MS2 coat protein (input ligand: FMN 200 uM): 184 nM
apparent KD of MS2 coat protein [1]: 30.8 nM
apparent KD of MS2 coat protein (input ligand: none): 34.9 nM

CCGGAAUUACAGGAUAUAGGAGUCGAUAGACACCUAGAAGGGUAGACAUGAGGAUCACCCAUGUGUCCUACCGG [Fiskers Ex 6 - 85] (puzzle: Exclusion 6)
apparent KD of MS2 coat protein [2]: 176 nM

CAAGCAGAAUAAAGGUCCGACAUGAGGAUCACCCAUGUUCGUCGGGAUAUGCUUCCUUUACGAGGGAGCACCAGAAA [Eternabot (L2) Solution 25] (Eterna round: R97, puzzle: Sensor, turn-off variant 1)
apparent KD of MS2 coat protein (input ligand: FMN 200 uM): 34.3 nM
apparent KD of MS2 coat protein (input ligand: none): 38.2 nM

AGAGUGCUGCGAGGAUAUACAUGAGGAUCACCCAUGUAAAAGUGUGAGGCUUUGCCUCACACUAUGUAGAAGGCGCAGUACUCA [Mat - Exclusion NG 2 - Mod of JL - D10] (Eterna round: R96, puzzle: Exclusion NG 2)
apparent KD of MS2 coat protein (input ligand: FMN 200 uM): 17.6 nM
apparent KD of MS2 coat protein [1]: 9.4 nM
apparent KD of MS2 coat protein (input ligand: none): 13.4 nM

GUGUUGCGAGGAUAUAUAAGGGUAUGUUCUUGAGGUAUGGAACAUGAGGAUCACCCAUGUAGAAGGUGCAUAAC [JR_Ex2_Sub045] (Eterna round: R97, puzzle: Exclusion 2)
apparent KD of MS2 coat protein (input ligand: FMN 200 uM): 507 nM
apparent KD of MS2 coat protein (input ligand: none): 247 nM

UAUUCACAUGAGGAUCACCCAUGUCAGGAUAUAGAAGCGUAGUCCGCAAGAAAGCUUACUAGAAGGGACGUAUU [EX1 B.22] (Eterna round: R97, puzzle: Exclusion 1)
apparent KD of MS2 coat protein (input ligand: FMN 200 uM): 18.8 nM
apparent KD of MS2 coat protein (input ligand: none): 18.5 nM

AAUAACAGAGGAUAUACUAUUUUAUGUGUUUGUUAUUUUAAACAUGAGGAUCACCCAUGUAGAAGGCUGAGUAA [JMF 29] (puzzle: Exclusion 2)
apparent KD of MS2 coat protein [2]: 21.9 nM

UUUCGGCAUGUAGGAUAUGGGUCCGAUUAGGAUUUAGAAGGACAUGAGGAUCACCCAUGUGCAUUUAAUUGGUCAUUACCUUUU [EXclNG1-LROPPY10] (Eterna round: R96, puzzle: Exclusion NG 1)
apparent KD of MS2 coat protein [1]: 46.5 nM

GAUGCUUCGGCAUCUACAAGCUUUUUGCUCGUCUUAUUAACAUGAGGAUCACCCAUGUACAAGAGACCUCAUGUAUU [Sensor v3 - turn-off variant 2 - 12] (puzzle: Sensor v3, turn-off variant 2)
apparent KD of MS2 coat protein [3]: 125 nM
apparent KD of MS2 coat protein [2]: 14.3 nM
apparent KD of MS2 coat protein [4]: 202 nM

ACAUGAGGAUCACCCAUGUCAGGCGGGUCCUCUCCGGCUGUUGAGGAUAUAGUUCGGUAUCCGCGCUAGAAGGUGAGGGCCGGC [Aenatbe mod 21] (Eterna round: R96, puzzle: Exclusion NG 3)
apparent KD of MS2 coat protein (input ligand: FMN 200 uM): 15.1 nM
apparent KD of MS2 coat protein [1]: 9.99 nM
apparent KD of MS2 coat protein (input ligand: none): 17.1 nM

AGCGCCAUCGUGAGAUGGCGUAUUACAUGAGGAUCACCCAUGUAGGAUAUCGAUUGCUUUGCAGUCGAGAAGGGCAUGUUCUAG [JL ENG3 3.80 Mod G] (Eterna round: R96, puzzle: Exclusion NG 3)
apparent KD of MS2 coat protein (input ligand: FMN 200 uM): 82.4 nM
apparent KD of MS2 coat protein [1]: 35.8 nM
apparent KD of MS2 coat protein (input ligand: none): 73.6 nM

UAUUAAACAUAGGAUAUCGAAUAAAUCAUUUAACGAGAAGGAUGAACAUGAGGAUCACCCAUGUGGUAUCAUGG [Mat - Exclusion 6 - JL Mod - D14] (puzzle: Exclusion 6)
apparent KD of MS2 coat protein [2]: 242 nM

GAUUAUGCAAGCUUUAGGGACAUGAGGAUCACCCAUGUUCGUCUUAUUGAUCUAGGUACGCUGACGUACCUAGAUCU [JL-sv1-2.32 Brourd mod] (puzzle: Sensor v3, turn-off variant 1)
apparent KD of MS2 coat protein [3]: 17 nM
apparent KD of MS2 coat protein [2]: 44.6 nM
apparent KD of MS2 coat protein [4]: 14.8 nM

GUAACAACUAGAGGAUAUCAGCACGUGUAGUGCUGAGAAGGCUAGAGUUACAUGAGGAUCACCCAUGUCUAGAGAUCAUUAAUU [ENG1/13-A3] (Eterna round: R96, puzzle: Exclusion NG 1)
apparent KD of MS2 coat protein (input ligand: FMN 200 uM): 142 nM
apparent KD of MS2 coat protein [1]: 52.9 nM
apparent KD of MS2 coat protein (input ligand: none): 69.3 nM

UUUUUGUGAGGAUAUCAGUAGUAGAACAAUAGUACUACUACUGAGAAGGCACAUGAGGAUCACCCAUGUUCCUC [Fiskers Ex 4 Super stable 44 mod 9] (puzzle: Exclusion 4)
apparent KD of MS2 coat protein [2]: 52.6 nM

UUUAAUUUUUUUUUUUUACAAGCUUUUUGCUCGUCUUAUACAUGAGGAUCACCCAUGUGGGUAGGAGGUAAAUUAUC [JMF 72] (puzzle: Sensor v3, turn-off variant 2)
apparent KD of MS2 coat protein [3]: 32.5 nM
apparent KD of MS2 coat protein [2]: 50.4 nM
apparent KD of MS2 coat protein [4]: 35.5 nM

ACAAGCUUUUAGAUUCUUAACAUGAGGAUCACCCAUGUGCUCGUCUUAUUGGCCGGCGGGCCGCCGGAAAAGCUUGU (Eterna round: R97, puzzle: Sensor, turn-off variant 1)
apparent KD of MS2 coat protein (input ligand: FMN 200 uM): 283 nM
apparent KD of MS2 coat protein (input ligand: none): 408 nM

GUCCGGCAUGUAGGAUAUGGAUCCGAUUAGGAUUUAGAAGGACAUGAGGAUCACCCAUGUGCAUUUAAUUAGUCAUUACCGGAC [EXclNG1-LROPPY04] (Eterna round: R96, puzzle: Exclusion NG 1)
apparent KD of MS2 coat protein (input ligand: FMN 200 uM): 16.4 nM
apparent KD of MS2 coat protein [1]: 12.5 nM
apparent KD of MS2 coat protein (input ligand: none): 16.6 nM

GGUUGUUGUUUCCGUUCUUACAUGAGGAUCACCCAUGUUUCUUGUCGUGCUCGCGUUGCUCGUCUGGCUGUCUGUUG [salish99_TOv1_r3_071] (puzzle: Sensor v3, turn-off variant 1)
apparent KD of MS2 coat protein [3]: 52.3 nM
apparent KD of MS2 coat protein [2]: 40.2 nM
apparent KD of MS2 coat protein [4]: 67.7 nM

CCUCAUAGUCAGGAUAUCAGCGCGUUCGGCAAAUGAGAAGGGACCACAUGAGGAUCACCCAUGUAAAACCAAAA [Beencema] (Eterna round: R97, puzzle: Exclusion 6)
apparent KD of MS2 coat protein (input ligand: FMN 200 uM): 44.1 nM
apparent KD of MS2 coat protein (input ligand: none): 36 nM
